131 substances from the supplement of paper PMC12042874 can be followed below.

± gives the uncertainty stated by the source.

A short description of the series: amyloid nucleation score (Sup35N fusion, yeast selection) (log enrichment); library NNK3; higher = more nucleation; inactive = no reads after selection. The method in brief: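 DiMSum was used to calculate nucleation scores as log enrichment of output over input reads, centred on the mode score of non-aggregating sequences. Sequences with fewer than 100 input reads were not scored. Input and output came from Illumina sequencing of plasmid inserts in psi-negative yeast expressing peptides of 20 random codons fused to Sup35N, induced 24 hours with 100 μM copper sulfate and then grown 7 days at 30°C on medium lacking adenine and uracil.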
LDLSLMHGMFTYFGVHMMMP: the amyloid nucleation score entry is “inactive”.
For the substance RLDVFYEMLIMYKEQYGMVR, the amyloid nucleation score entry is “inactive”.
Take WINTRLGCPDTNRGSTRVTL: the amyloid nucleation score result is “inactive”.
As for KNDGKEF, the amyloid nucleation score entry was “inactive”.
KRCRFVVIFKSGIVTLWKLF yielded an amyloid nucleation score of 0.568 ± 0.42.
SPTRQLIKFKYSGHYIVHLR: the amyloid nucleation score entry is “inactive”.
In turn, QRYTFIIIGTGWTGYYRHTP registered an amyloid nucleation score of -0.156 ± 0.41.
As to QILLFSFRVLFAGYRKIAST, the amyloid nucleation score entry was “inactive”.
For VRIFSTVEKASP, the amyloid nucleation score result is “inactive”.
With PFMCGRAIRLSFREFTRLKN, the amyloid nucleation score result was “inactive”.
Consider ESADATLREAKSSVYKKYRY, for which the amyloid nucleation score entry was “inactive”.
As to SNDFEVLVLQLLYFSIWCY, the amyloid nucleation score came out at 1.48 ± 0.091.
PLSSSLGWVCL: the amyloid nucleation score entry is “inactive”.
On to RTFVNGSAEYANASHWEYPN, for which the amyloid nucleation score result was “inactive”.
Regarding LFVLIDYNRYP, the amyloid nucleation score result is “inactive”.
Take LIRHFNKRVTSCNVVLLYNG: the amyloid nucleation score result was “inactive”.
Regarding RVIMKIIVTFTA, the amyloid nucleation score was 0.832 ± 0.23.
For the substance WDPECSTDVISEGRGRYTEW, the amyloid nucleation score entry is “inactive”.
For GSMSSCLVKRLNC, the amyloid nucleation score entry was “inactive”.
For the substance KFSSMGTVSLSGKSLYSDAV, the amyloid nucleation score entry is “inactive”.
In the case of ASLVKSHDHMRASHLGGLHK, the amyloid nucleation score result is “inactive”.
On to RNKLALVLKLAHSI, for which the amyloid nucleation score result is “inactive”.
Take DCAYMCNVYFLVLGSAKLFI: the amyloid nucleation score came to 1.27 ± 0.17.
Take SYSSIVCLGIDYRQAFWCIR: the amyloid nucleation score was 1.8 ± 0.077.
In the case of FTRSLETYYFGKNDVWFSLS, the amyloid nucleation score result was “inactive”.
Under NMYSCNSGGHKQLCLKVGDL stands “inactive”; under SRSCVACGLY, “inactive”; under SSITVF, “inactive”.
Consider QEIRTVTGALTDTWIVFICR, for which the amyloid nucleation score result is “inactive”.
Regarding GTLLMMVFGTVHS, the amyloid nucleation score entry was “inactive”.
For YNLDDIDSITLYLAVSLCKV, the amyloid nucleation score result was “inactive”.
Turning to YLRDNKAWLASSSKL, the amyloid nucleation score entry is “inactive”.
As to WCFYKSRLFVVQVVVLYNRF, the amyloid nucleation score entry was “inactive”.
For the substance FTAFMFS, the amyloid nucleation score entry was “inactive”.
Turning to LWNVLHDNSHCSLGSTPLGQ, the amyloid nucleation score result was “inactive”.
As to FLTFRPSLSTRHLFLMESHT, the amyloid nucleation score entry was “inactive”.
On to FRGFIAVDAVGMVTNYIIKY, for which the amyloid nucleation score came out at 1.89 ± 0.062.
Consider ARVLDAWSYRVARKNLWESL, for which the amyloid nucleation score result is “inactive”.
Take LCVIVTAVKGFTVPWHNFFL: the amyloid nucleation score result was “inactive”.
On to LQSCSCAGLFPDL, for which the amyloid nucleation score entry was “inactive”.
Consider HNITPESAKVCKVRRCLGSD, for which the amyloid nucleation score turned out to be 0.619 ± 0.2.
In the case of LFVYSWKRFDGNWNKLSWNR, the amyloid nucleation score entry was “inactive”.
For GSVFTRFVSREVFCWDACCR, the amyloid nucleation score result is “inactive”.
Under NTMMA stands “inactive”; under FKMPTIRLVLK, “inactive”.
Under FVSKHRVSTIWRVISHMRGG stands -0.257 ± 0.98.
Regarding NCCQFPVDAS, the amyloid nucleation score entry is “inactive”.
Under TWVCEG stands “inactive”.
With RLLVTLQ, the amyloid nucleation score entry is “inactive”.
For the substance VDNSYQFSLKTDSNYNIERQ, the amyloid nucleation score result is “inactive”.
With SHLFREIDITWSCSLVISCN, the amyloid nucleation score entry was “inactive”.
Substance QSKFFGQWFLRQND yielded an amyloid nucleation score of 0.299 ± 0.21.
Regarding LRTLALPSSVFVRDVHYY, the amyloid nucleation score worked out at 0.987 ± 0.15.
In the case of VGLIWVVSFIDKNSYGWSGT, the amyloid nucleation score entry is “inactive”.
The result for CFDAYIAYLSMRCWYPKNNC reads 0.015 ± 0.71; that for SWLNKIAKVIST, “inactive”; that for FTWSVHKVDEVCHLLETGDA, “inactive”.
The result for QRAMYCKSLMSF reads “inactive”.
As for STYDRVKNLYVRRSAVVLPS, the amyloid nucleation score entry is “inactive”.
For MMGTSWDWRYRYLRLRGEEC, the amyloid nucleation score result was “inactive”.
With LGDYSLTE, the amyloid nucleation score entry was “inactive”.
Take FERSMHFENRDSDPCYIVRF: the amyloid nucleation score result was “inactive”.
Under NCYFIQGWSSLMYSKGFNKC stands “inactive”; under DCHLPKIKYFAITYFCFFRR, “inactive”.
LKDNPNSLWC: the amyloid nucleation score is -0.224 ± 1.1.
On to LQISSMIFELYIFDLMMVM, for which the amyloid nucleation score entry was “inactive”.
For the substance CFMHPADIPSMAVVVYLCAG, the amyloid nucleation score result is “inactive”.
DILFTSIS: the amyloid nucleation score came out at 0.257 ± 0.41.
On to SYSVIMNHMKRWNPGDTSKW, for which the amyloid nucleation score entry is “inactive”.
The result for FTSLLAVYSIPLQWGATT reads “inactive”.
Consider WKRNI, for which the amyloid nucleation score was 0.172 ± 0.71.
On to RMLDG, for which the amyloid nucleation score entry was “inactive”.
The result for CVAYSRTEVRFYRYEHLWV reads 1.18 ± 0.12; that for NMFRFLMCSSTRHYVRIMTN, “inactive”; that for RIPKDEYTNPGRA, “inactive”.
For the substance IRNFPRDLEFLPFWHSILSL, the amyloid nucleation score result is “inactive”.
In the case of DLDCGTSDMLCCRLVCC, the amyloid nucleation score entry is “inactive”.
Consider CNVASSNFRCHYSQMRRFCE, for which the amyloid nucleation score entry is “inactive”.
On to YVSPKSIVLIPCYTMRKTRY, for which the amyloid nucleation score entry is “inactive”.
As for SCSWHFIFCCNGLHMSVKKR, the amyloid nucleation score came out at 1.66 ± 0.084.
GHVAHLINILYVNSTIPQTG: the amyloid nucleation score result is “inactive”.
The result for LSLVCNCRSTCNCPGLSL reads “inactive”; that for YINLFLLSGSFVFRVDHHFI, 2.47 ± 0.088; that for YPSMLPGTGSIAIMDEFVIM, “inactive”.
In turn, CIVYSFSRGFTSNGGEGYRW showed an amyloid nucleation score of 0.67 ± 0.22.
The result for LFNGSSFITCSRTLGVL reads “inactive”.
As to STTVTGLYKNFRHYVSGRCG, the amyloid nucleation score result was “inactive”.
For SGSNILMEWNCYRARLCRGS, the amyloid nucleation score result was “inactive”.
On to EDQLL, for which the amyloid nucleation score was -0.077 ± 0.54.
The result for HNSQLWLVPSVFTKRLCHIN reads “inactive”.
Under SVERCVIRFCYLQGLYMAAF stands “inactive”.
Consider VRRLFVARCRYCQLMYFRGE, for which the amyloid nucleation score entry was “inactive”.
With FYLYPDVERLNFCIMVRHMF, the amyloid nucleation score entry was “inactive”.
For VYACWIMSNVPSRAVEILYS, the amyloid nucleation score result was “inactive”.
As to YRLQLPYSVNEAVFLLVGSK, the amyloid nucleation score entry is “inactive”.
As for NVEMLFNNSHHSTDEDAWYD, the amyloid nucleation score entry was “inactive”.
Regarding LYNVYGSRA, the amyloid nucleation score entry is “inactive”.
Under RTSVYAALSWGEAVLREVFE stands “inactive”.
Under EHFNPRNC stands “inactive”; under LVGHEFTAGSNYDSDLGTV, “inactive”; under IRRQYIYHSNEYRMMHYSES, 0.179 ± 0.85.
Under LRSLYSTINFKMCWICEAAS stands “inactive”; under GQAVNYFGGA, “inactive”.
Consider VYVRVFGLLPDDTTSSF, for which the amyloid nucleation score entry was “inactive”.
Turning to GRTSWGRRR, the amyloid nucleation score result was “inactive”.
The result for LLVMSQVKYRHMSAAPA reads “inactive”; that for NSIIGPTHHIVK, “inactive”.
As to YELFS, the amyloid nucleation score came to 0.922 ± 0.11.
The result for QGKCDSELRAAAMDI reads “inactive”.
ANNLAFSRGG yielded an amyloid nucleation score of -0.977 ± 1.5.
The result for KVMTDIPDV reads “inactive”; that for SYILRLSHFITVGLFWAEMQ, “inactive”.
Turning to IHYGEYNFLGKSRWNHLFFF, the amyloid nucleation score entry was “inactive”.
Under DRSIEVDAYSCAVGVYQGPV stands “inactive”; under SIYCTLRVVGT, “inactive”.
In the case of RYLLIPAVGLK, the amyloid nucleation score result is “inactive”.
On to DFISERHYHRPAGPA, for which the amyloid nucleation score result was “inactive”.
With CQHSRRLKGAAYKSCQMYRR, the amyloid nucleation score result was “inactive”.
For the substance ANDVISYTFFLSEERG, the amyloid nucleation score entry is “inactive”.
Under SRFFGGRYSVLS stands “inactive”; under LHSIFDSVHSCMRFWMIWSE, “inactive”.
With FVESSDLMRMSWFWWTGWDL, the amyloid nucleation score result is “inactive”.
In the case of LRATNRGVMLNRFVSTMDKS, the amyloid nucleation score result was “inactive”.
VNFACSIGGRGLFGFGIKVS: the amyloid nucleation score result is “inactive”.
The result for LLDNFY reads “inactive”; that for SLWPSRNCVDEEVFDFSDKS, “inactive”.
Turning to MNGNGRFLVERRMLGSKKSV, the amyloid nucleation score result was “inactive”.
On to NLVRFLLKFMVKEYLRFTYI, for which the amyloid nucleation score result was “inactive”.
As for MRTMLVFVRGFKFFLPDLLI, the amyloid nucleation score entry was “inactive”.
CLLYSYCCPRKIVN: the amyloid nucleation score entry was “inactive”.
The result for SYYSRIRLLRRVRVSYYYVR reads 0.801 ± 0.22.
